Reference: the supplement of paper PMC7877785
± gives the uncertainty stated by the source.

Assay: self-splicing fitness, log relative to wild type (ln ratio); higher = more splicing; Tetrahymena group I intron in knt gene, E. coli kanamycin selection, DiMSum; sequences stand for … in CUCUCU…GGAGGGAAAAGUUAUCAGGCAUGCACCUGGUAGCUAGUCUUUAAACCAAUAGAUUGCAUCGGUUUAAAAGGCAAGACCGUCAAAUUGCGGGAAAGGGGUCAACAGCCGUUCAGUACCAAGUCUCAGGGGAAACUUUGAGAUGGCCUUGCAAAGGGUAUGGUAAUAAGCUGACGGACAUGGUCCUAACCACGCAGCCAAGUCCUAAGUCAACAGAUCUUCUGUUGAUAUGGAUGCAGUUCACAGACUAAAUGUCGGUCGGGGAAGAUGUAUUCUUCUCAUAAGAUAUAGUCGGACCUCUCCUUAAUGGGAGCUAGCGGAUGAAGUGAUGCAACACUGGAGCCGCUGGGAACUAAUUUGUAUGCGAAAGUAUAUUGAUUAGUUUUGGAGUACUCGUGGUCG
How it was run: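 DiMSum derived fitness as the error-weighted combination of fold changes across replicates, kanamycin versus no kanamycin, normalised to wild type. E. coli BL21(DE3) held the library, which randomised all eight P1ex-region intron nucleotides within the knt kanamycin-resistance gene on pET-22b(+). Six replicate transformations grew overnight at 37°C or 30°C on LB agar with or without 25 μg/mL kanamycin, also containing 100 μg/mL carbenicillin, 50 μM IPTG and 0.2% rhamnose, and pooled colonies were amplicon-sequenced on an Illumina HiSeq 2500.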

Sequence | self-splicing fitness (ln) (30 °C) | self-splicing fitness (ln) (37 °C)
GACUAGCAAUAUUACGUGUU | -2.22 ± 0.11 | -2.07 ± 0.17
GACUAGCAAUAUUACGUUAC | -2.46 ± 0.19 | -1.84 ± 0.22
GACUAGCAAUAUUACGUUCC | -3.69 ± 0.3 | -2.17 ± 0.23
GAGAAGCAAUAUUACGAACA | -1.05 ± 0.17 | -1.57 ± 0.2
GAGAAGCAAUAUUACGACUU | -1.9 ± 0.14 | -1.14 ± 0.14
GAGAAGCAAUAUUACGAUAU | -2.18 ± 0.16 | -0.855 ± 0.15
GAGAAGCAAUAUUACGAUUC | -0.752 ± 0.094 | -0.653 ± 0.15
GAGAAGCAAUAUUACGAUUU | -0.24 ± 0.081 | 0.493 ± 0.087
GAGAAGCAAUAUUACGCAGU | -3.98 ± 0.23 | -2.06 ± 0.17
GAGAAGCAAUAUUACGCCGA | -2.1 ± 0.24 | -0.228 ± 0.17
GAGAAGCAAUAUUACGCCUG | -0.32 ± 0.098 | -0.385 ± 0.17
GAGAAGCAAUAUUACGCGCG | -0.394 ± 0.14 | 0.218 ± 0.16
GAGAAGCAAUAUUACGCGGU | -2.38 ± 0.16 | -0.663 ± 0.16
GAGAAGCAAUAUUACGCUCG | -1.07 ± 0.14 | 0.735 ± 0.18
GAGAAGCAAUAUUACGGAGA | -3.8 ± 0.24 | -2.04 ± 0.28
GAGAAGCAAUAUUACGGGCA | -0.782 ± 0.1 | -0.441 ± 0.087
GAGAAGCAAUAUUACGGUAU | -1.67 ± 0.096 | -1.79 ± 0.17
GAGAAGCAAUAUUACGGUUA | -1.13 ± 0.12 | -0.315 ± 0.13
GAGAAGCAAUAUUACGUAUG | -2.37 ± 0.14 | -1.29 ± 0.14
GAGAAGCAAUAUUACGUAUU | -3.16 ± 0.14 | -3.08 ± 0.23
GAGAAGCAAUAUUACGUCGU | -2.16 ± 0.075 | -0.855 ± 0.077

Sequence | self-splicing fitness (ln) (30 °C) | self-splicing fitness (ln) (37 °C)
GAGAAGCAAUAUUACGUGCA | -0.762 ± 0.084 | -0.666 ± 0.094
GAGCAGCAAUAUUACGAAAU | -2.45 ± 0.21 | -1.84 ± 0.21
GAGCAGCAAUAUUACGACUC | -2.56 ± 0.19 | 0.053 ± 0.17
GAGCAGCAAUAUUACGAUAA | -2.23 ± 0.29 | -1.76 ± 0.24
GAGCAGCAAUAUUACGAUCC | -2.45 ± 0.19 | -0.494 ± 0.17
GAGCAGCAAUAUUACGAUGU | -3.19 ± 0.15 | -1.37 ± 0.11
GAGCAGCAAUAUUACGCCCG | -1.84 ± 0.25 | -0.798 ± 0.27
GAGCAGCAAUAUUACGCGCC | -3.87 ± 0.28 | -3.17 ± 0.35
GAGCAGCAAUAUUACGCUUC | -2.37 ± 0.28 | –
GAGCAGCAAUAUUACGGAAC | -3.14 ± 0.23 | -2.13 ± 0.16
GAGCAGCAAUAUUACGGACC | -0.847 ± 0.11 | -0.206 ± 0.16
GAGCAGCAAUAUUACGGAGG | -3.98 ± 0.21 | -2.3 ± 0.21
GAGCAGCAAUAUUACGGCGG | -2.18 ± 0.11 | -1.77 ± 0.16
GAGCAGCAAUAUUACGGGCA | -1.48 ± 0.17 | -0.674 ± 0.13
GAGCAGCAAUAUUACGGGGA | -2.84 ± 0.21 | -2.05 ± 0.14
GAGCAGCAAUAUUACGGGGG | -3.36 ± 0.26 | -2.46 ± 0.32
GAGCAGCAAUAUUACGGGUA | -3.4 ± 0.16 | -2.36 ± 0.14
GAGCAGCAAUAUUACGGUGA | -2.25 ± 0.12 | -0.646 ± 0.13
GAGCAGCAAUAUUACGUAAG | -2.59 ± 0.17 | -1.45 ± 0.18
GAGCAGCAAUAUUACGUCCG | -0.984 ± 0.3 | -0.968 ± 0.41
GAGCAGCAAUAUUACGUCGA | -1.51 ± 0.12 | -0.741 ± 0.12
